Measured values taken from publication PMC7074877 (ACS chemical neuroscience, 2018).

Assay: Transmission electron microscopy of assemblies
Format: physicochemical
Conditions: 7 μL aliquots on carbon-coated copper grids, stained with 1% uranyl acetate

HEWL: fibrils from hen egg white lysozyme, positive control for ThT and TEM
average diameter of assemblies by TEM: 38 nm
